One may read the IC50 as the point on the concentration scale where inhibition reaches its midpoint. A lower IC50 goes with higher potency.

The target of the assay is IDE (UniProt P14735). The experiment in a line: enzyme inhibition (double inhibitor plot); 1x IC50.

Turning to Bacitracin, the IC50 came to 10 µM.

For the origin of these results see US20160282364A1, “ASSAY FOR INSULIN-DEGRADING ENZYME (IDE) INHIBITORS” (PRESIDENT AND FELLOWS OF HARVARD COLLEGE, priority 2013, published 2016).
